± gives the standard deviation of the averaged measurements.
Assay: PET hydrolysis product formed (TPA+MHET+BHET, UV-Vis) per mg enzyme (mmol/mg enzyme); higher = more PET depolymerisation activity; extreme values may be limits of the assay
Conditions: 24 h
Method: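 Purified PET hydrolases, 2.5 ug enzyme on 3.5 mg amorphous PET film (aFilm) or crystalline PET powder (cryPow) in 0.5 mL of 50 mM buffer (NaCitrate pH 4.5/5.5, NaPhosphate 6.5/7.5, glycine 8.5/9.5) at 60 or 70 C with shaking for 24 h. Total aromatic product by UV-Vis (260/280 nm, blank-subtracted, normalised per mg enzyme) and individual TPA, MHET, BHET concentrations by UHPLC-DAD at 240 nm; duplicate reactions.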

[1] = PET substrate: aFilm, 60 °C, pH 4.5
[2] = PET substrate: aFilm, 60 °C, pH 5.5
[3] = PET substrate: aFilm, 60 °C, pH 6.5
[4] = PET substrate: aFilm, 60 °C, pH 7.5
[5] = PET substrate: aFilm, 60 °C, pH 8.5
[6] = PET substrate: aFilm, 60 °C, pH 9.5
[7] = PET substrate: aFilm, 70 °C, pH 4.5
[8] = PET substrate: aFilm, 70 °C, pH 5.5
[9] = PET substrate: aFilm, 70 °C, pH 6.5
[10] = PET substrate: aFilm, 70 °C, pH 7.5
[11] = PET substrate: aFilm, 70 °C, pH 8.5
[12] = PET substrate: aFilm, 70 °C, pH 9.5
[13] = PET substrate: cryPow, 60 °C, pH 4.5
[14] = PET substrate: cryPow, 60 °C, pH 5.5
[15] = PET substrate: cryPow, 60 °C, pH 6.5
[16] = PET substrate: cryPow, 60 °C, pH 7.5
[17] = PET substrate: cryPow, 60 °C, pH 8.5
[18] = PET substrate: cryPow, 60 °C, pH 9.5
[19] = PET substrate: cryPow, 70 °C, pH 4.5
[20] = PET substrate: cryPow, 70 °C, pH 5.5
[21] = PET substrate: cryPow, 70 °C, pH 6.5
[22] = PET substrate: cryPow, 70 °C, pH 7.5
[23] = PET substrate: cryPow, 70 °C, pH 8.5
[24] = PET substrate: cryPow, 70 °C, pH 9.5

| Sequence | PET hydrolysis product formed [1] | PET hydrolysis product formed [2] | PET hydrolysis product formed [3] | PET hydrolysis product formed [4] | PET hydrolysis product formed [5] | PET hydrolysis product formed [6] | PET hydrolysis product formed [7] | PET hydrolysis product formed [8] | PET hydrolysis product formed [9] | PET hydrolysis product formed [10] | PET hydrolysis product formed [11] | PET hydrolysis product formed [12] | PET hydrolysis product formed [13] | PET hydrolysis product formed [14] | PET hydrolysis product formed [15] | PET hydrolysis product formed [16] | PET hydrolysis product formed [17] | PET hydrolysis product formed [18] | PET hydrolysis product formed [19] | PET hydrolysis product formed [20] | PET hydrolysis product formed [21] | PET hydrolysis product formed [22] | PET hydrolysis product formed [23] | PET hydrolysis product formed [24] |
| --- | --- | --- | --- | --- | --- | --- | --- | --- | --- | --- | --- | --- | --- | --- | --- | --- | --- | --- | --- | --- | --- | --- | --- | --- |
| SNPYQRGPNPTRSALTADGPFSVATYTVSRLSVSGFGGGVIYYPTGTSLTFGGIAMSPGYTADASSLAWLGRRLASHGFVVLVINTNSRFDGPDSRASQLSAALNYLRTSSPSAVRARLDANRLAVAGHSMGGGGTLRIAEQNPSLKAAVPLTPWHTDKTFNTSVPVLIVGAEADTVAPVSQYAIPFYQNLPSTTPKVYVELCNASHIAPNSDNAAISVYTISWMKLWVDNDTRYRQFLCNVNDPALCDFRTNNRHCQ [LCC-A2] | 0.0551 ± 0.011 | 0.331 ± 0.024 | 0.484 ± 0.058 | 2.22 ± 0.15 | 0.195 ± 0.039 | 0.963 ± 0.16 | 0 | 0.181 ± 0.01 | 0.361 ± 0.048 | 2.87 ± 0.14 | 0.171 ± 0.012 | 0.934 ± 0.039 | 0.0357 ± 0.0049 | 0.0766 ± 0.0022 | 0.152 ± 0.0036 | 0.261 ± 0.063 | 0.0909 ± 0.014 | 0.195 ± 0.032 | 0 | 0.0541 ± 0.0076 | 0.139 ± 0.014 | 0.334 ± 0.043 | 0.0995 ± 0.007 | 0.205 ± 0.0083 |
| SNPYQRGPNPTRSALTADGPFSVRTYTISRLSVSGFGGGVIYYPTGTSLTFGGIAMSPGYTADASSLAWLGRRLASHGFVVLVINTNSRFDGPDSRASQLSAALNYLRTSSPSAVRARLDANRLAVAGHSMGGGGTLRIAEQNPSLKAAVPLTPWHTDKTFNTSVPVLIVGAEADTVAPVSQHAIPFYQNLPSTTPKVYVELCNASHIAPNSPNAAISVYTISWMKLWVDNDTRYRQFLCNVNDPALCDFRTNNRHCQ [LCC-ICCG RIP] | 0.029 ± 0.018 | 0.0802 ± 0.0094 | 0.202 ± 0.029 | 0.775 ± 0.2 | 0.127 ± 0.0045 | 0.684 ± 0.33 | 0 | 0.103 ± 0.02 | 0.181 ± 0.01 | 1.26 ± 0.084 | 0.1 ± 0.01 | 0.65 ± 0.11 | 0.0235 ± 0.002 | 0.0628 ± 0.0065 | 0.082 ± 0.00092 | 0.113 ± 0.0013 | 0.0714 ± 0.033 | 0.0784 ± 0.011 | 0 | 0.0369 ± 0.0017 | 0.0809 ± 0.0019 | 0.162 ± 0.034 | 0.0631 ± 0.0059 | 0.0938 ± 0.0042 |
| SNPYQRGPNPTRSALTATGPFSVATYTVSRLLVSGFGGGVIYYPTGTSLTFGGIAMSPGYTADASSLAWLGRRLASHGFVVLVINTNSRFDGPDSRARQLSAALNYLRTSSPSAVRARLDANRLAVAGHSMGGGGTLRIAEQNPSLKAAVPLTPWHPDKTFNTSVPVLIVGAQADTVAPVSQHAIPFYQNLPSTTPKVYVELCNASHIAPNSPNAAISVYTISWMKLWVDNDTRYRQFLCNVNDPALCDFRTNNRHCQ [LCC-ICCG I6M] | 0.0326 ± 0.002 | 0.147 ± 0.082 | 0.223 ± 0.032 | 1.32 ± 0.091 | 0.169 ± 0.013 | 0.577 ± 0.0065 | 0 | 0.105 ± 0.017 | 0.0963 ± 0.031 | 0.788 ± 0.054 | 0.0775 ± 0.0074 | 0.402 ± 0.064 | 0.01995 ± 0.00015 | 0.0583 ± 0.0049 | 0.0726 ± 0.0072 | 0.0808 ± 0.017 | 0.0461 ± 0.015 | 0.0598 ± 0.019 | 0 | 0.0302 ± 0.0017 | 0.05 ± 0.0014 | 0.122 ± 0.028 | 0.0495 ± 0.023 | 0.0468 ± 0.0039 |
